Values quoted from earlier work in PMC7070747.
pKd: −log10 of the molar value.

Columns and labels:
[1] = biological target: Fibronectin extra domain B EDB (Homo sapiens) (UniProt P02751)
[2] = biological target: integrin αvβ3 (Homo sapiens) (UniProt P06756)
[3] = biological target: integrin αvβ5 (Homo sapiens) (UniProt P06756)

Sequence of UniProt P02751 (P02751 1266-1356): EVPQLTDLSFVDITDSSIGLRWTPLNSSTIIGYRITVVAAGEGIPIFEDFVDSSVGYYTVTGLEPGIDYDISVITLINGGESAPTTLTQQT

| pKd [1] | pKd [2] | pKd [3] | Substance |
| --- | --- | --- | --- |
| 4.96 |  |  | ZD2 |
|  | 7.74 | 7.21 | iRGD |
